Results on 3 compounds are retold here after publication PMC10718521, “Complexity of αvβ6-integrin targeting RGD peptide trimers: emergence of non-specific binding by synergistic interaction” (RSC Medicinal Chemistry, 2023).

Data set [1] is classed as physicochemical. Particulars: pH 7.4. The procedure:
The trimers were labeled with ^68Ga for biodistribution and small-animal PET experiments employing a fully automated method.[39] Non-radioactive reference compounds were obtained by complexation of equimolar amounts of ^natGa^3+ in form of the aq. chloride solution.[39] The polarity of the ^68Ga or ^natGa^3+ containing conjugates, respectively, was assessed by two established proxies, namely the n-octanol/water distribution coefficient at pH 7.4, log D7.4, and the retention time tR on a reverse-phase HPLC column with a suitable liquid-phase gradient (10–50% acetonitrile in water with 0.1% trifluoroacetic acid) (see Fig. 2a). […] A measurable decrease of the log D7.4 was only observed for ≥3 Tyr. […]
(§1) Unless otherwise noted, the materials and the instrumentation used (analytical and preparative HPLC, ESI-MS, gamma counter, centrifuge), and the experimental procedures (^68Ga radiolabeling and radio-TLC for quality control, determination of log D7.4, cultivation of H2009 human lung adenocarcinoma cells, generation of tumor xenografts in CB17 SCID mice, small-animal PET, and biodistribution) were described before.[19] All animal experiments have been carried out according to applicable law and institutional guidelines of Technical University of Munich, and were approved by the responsible local authority (Regierung von Oberbayern). The H2009 cells were regularly authenticated and tested for mycoplasma contamination. The affinities of the pentynoic amide functionalized peptides were determined employing a well-established ELISA protocol on immobilized integrins.[36] TRAP-triazide,[38]FF (previously termed AvB6),[32] and YY (also referred to as Tyr2-alkyne)[33] were synthesized as described previously. RP-HPLC for assessment of compound polarity was done on a 150 × 4.6 mm ReproSil-Pur 120 C18-AQ 5 μm column, with a flow of 0.75 mL min^−1 and a gradient of 10–50% MeCN in water, both containing 0.1% trifluoroacetic acid, within 15 min. The required ^natGa-complexes of the peptide trimers were synthesized by reaction with equimolar amounts of aq. GaCl3 as described.[19]

The next data set in a line: in vivo. Further details: species or system mice. The following applies: CB17 SCID, mouse, total radioactivity.
Description: The biodistribution of all ^68Ga-labeled peptide trimers was investigated in severe combined immunodeficiency (SCID) mice bearing subcutaneous xenografts of the αvβ6-integrin expressing human lung adenocarcinoma cell line H2009 on their right shoulders.
as §1

The mark [2] stands for this setting: tumor/organ ratio Heart (myocard).
The mark [3] stands for this setting: tumor/organ ratio Large intestine (empty).
[4] abbreviates: tumor/organ ratio Small intestine (empty).
[5] abbreviates: tumor/organ ratio Stomach (empty).

A word on the logD: it is the decadic logarithm of the distribution of all forms, ionised or not, between an organic phase and buffer at a given pH. A lower logD goes with lower lipophilicity. Usually tissue uptake stands for the percentage of the injected dose found per gram of tissue.

`CC(C)C[C@@H]1NC(=O)[C@H](CC(=O)O)NC(=O)CNC(=O)[C@H](CCCNC(=N)N)NC(=O)[C@H](Cc2ccccc2)NC(=O)[C@H](CCCCNC(=O)CCc2cn(CCCNC(=O)CCP(=O)(O)CN3CCN(CP(=O)(O)CCC(=O)NCCCn4cc(CCC(=O)NCCCC[C@H]5C(=O)N[C@@H](Cc6ccccc6)C(=O)N[C@@H](CCCNC(=N)N)C(=O)NCC(=O)N[C@@H](CC(=O)O)C(=O)N[C@@H](CC(C)C)C(=O)N[C@@H](C)C(=O)N[C@@H](Cc6ccccc6)C(=O)N6CCC[C@@H]6C(=O)N5C)nn4)CCN(CP(=O)(O)CCC(=O)NCCCn4cc(CCC(=O)NCCCC[C@H]5C(=O)N[C@@H](Cc6ccccc6)C(=O)N[C@@H](CCCNC(=N)N)C(=O)NCC(=O)N[C@@H](CC(=O)O)C(=O)N[C@@H](CC(C)C)C(=O)N[C@@H](C)C(=O)N[C@@H](Cc6ccc(O)cc6)C(=O)N6CCC[C@@H]6C(=O)N5C)nn4)CC3)nn2)N(C)C(=O)[C@H]2CCCN2C(=O)[C@H](Cc2ccccc2)NC(=O)[C@H](C)NC1=O` (68Ga complex, metal not drawn) [Y1F]: the “log D7.4” value in data set [1] is listed as −1.4 to −1.5. This compound came in with a log distribution coefficient (logD) in data set [1] of -1.4 ± 0.1. The tissue uptake at 1.5 h in the data set “in vivo” (Adrenals uptake) amounted to 1.26 ± 0.24 %ID/g; in “in vivo” (Blood uptake) it was 2.57 ± 0.33 %ID/g; in the data set “in vivo” (Heart (myocard) uptake) it was 1.2 ± 0.16 %ID/g; in “in vivo” (Kidneys uptake) it was 111 ± 15.3 %ID/g; in “in vivo” (Large intestine (empty) uptake) it was 4.43 ± 1.28 %ID/g; in the data set “in vivo” (Liver uptake), 3.86 ± 0.17 %ID/g. Further, the tissue uptake at 1.5 h was 8.81 ± 0.64 %ID/g in the data set “in vivo” (Lung uptake); 0.97 ± 0.48 %ID/g in “in vivo” (Muscle uptake); 0.61 ± 0.1 %ID/g in the data set “in vivo” (Pancreas uptake); 2.86 ± 0.57 %ID/g in “in vivo” (Small intestine (empty) uptake); 3.48 ± 0.49 %ID/g in the data set “in vivo” (Spleen uptake); 7.37 ± 1.23 %ID/g in the data set “in vivo” (Stomach (empty) uptake). For the same compound, the tissue uptake at 1.5 h in the data set “in vivo” (Tumor H2009 uptake) is 8.08 ± 1.35 %ID/g. The tissue to tissue ratio at 1.5 h stood at 6.5 ± 0.8 in “in vivo” (tumor/organ ratio Adrenals); 3.2 ± 0.6 in the data set “in vivo” (tumor/organ ratio Blood); 6.8 ± 1.2 in “in vivo” (setting [2]); 0.1 in “in vivo” (tumor/organ ratio Kidneys); 2 ± 0.9 in the data set “in vivo” (setting [3]); 2.1 ± 0.4 in the data set “in vivo” (tumor/organ ratio Liver). The tissue to tissue ratio at 1.5 h in the data set “in vivo” (tumor/organ ratio Lung) was 0.9 ± 0.1; in “in vivo” (tumor/organ ratio Muscle) it was 9.5 ± 3.2; in “in vivo” (tumor/organ ratio Pancreas), 13.3 ± 2.3; in “in vivo” (setting [4]) it was 2.9 ± 0.9; in the data set “in vivo” (tumor/organ ratio Spleen) it was 2.4 ± 0.2; in “in vivo” (setting [5]), 1.1 ± 0.3.

The compound `CC(C)C[C@@H]1NC(=O)[C@H](CC(=O)O)NC(=O)CNC(=O)[C@H](CCCNC(=N)N)NC(=O)[C@H](Cc2ccccc2)NC(=O)[C@H](CCCCNC(=O)CCc2cn(CCCNC(=O)CCP(=O)(O)CN3CCN(CP(=O)(O)CCC(=O)NCCCn4cc(CCC(=O)NCCCC[C@H]5C(=O)N[C@@H](Cc6ccccc6)C(=O)N[C@@H](CCCNC(=N)N)C(=O)NCC(=O)N[C@@H](CC(=O)O)C(=O)N[C@@H](CC(C)C)C(=O)N[C@@H](C)C(=O)N[C@@H](Cc6ccc(O)cc6)C(=O)N6CCC[C@@H]6C(=O)N5C)nn4)CCN(CP(=O)(O)CCC(=O)NCCCn4cc(CCC(=O)NCCCC[C@H]5C(=O)N[C@@H](Cc6ccccc6)C(=O)N[C@@H](CCCNC(=N)N)C(=O)NCC(=O)N[C@@H](CC(=O)O)C(=O)N[C@@H](CC(C)C)C(=O)N[C@@H](C)C(=O)N[C@@H](Cc6ccc(O)cc6)C(=O)N6CCC[C@@H]6C(=O)N5C)nn4)CC3)nn2)N(C)C(=O)[C@H]2CCCN2C(=O)[C@H](Cc2ccc(O)cc2)NC(=O)[C@H](C)NC1=O` (68Ga complex, metal not drawn) [Y3F] showed a logD in data set [1] of -1.8 ± 0.1. Also, the tissue uptake at 1.5 h stood at 0.77 ± 0.42 %ID/g in “in vivo” (Adrenals uptake); 0.96 ± 0.3 %ID/g in “in vivo” (Blood uptake); 0.62 ± 0.15 %ID/g in the data set “in vivo” (Heart (myocard) uptake); 71.1 ± 15 %ID/g in the data set “in vivo” (Kidneys uptake); 5.15 ± 2.63 %ID/g in “in vivo” (Large intestine (empty) uptake); 0.95 ± 0.22 %ID/g in the data set “in vivo” (Liver uptake). Moreover, the tissue uptake at 1.5 h in the data set “in vivo” (Lung uptake) worked out at 4.83 ± 1.54 %ID/g; in the data set “in vivo” (Muscle uptake) it was 0.66 ± 0.25 %ID/g; in the data set “in vivo” (Pancreas uptake), 0.34 ± 0.11 %ID/g; in the data set “in vivo” (Small intestine (empty) uptake) it was 2.6 ± 0.9 %ID/g; in “in vivo” (Spleen uptake), 2.38 ± 0.31 %ID/g; in “in vivo” (Stomach (empty) uptake), 5.64 ± 1.94 %ID/g. Moreover, in “in vivo” (Tumor H2009 uptake), the tissue uptake at 1.5 h was determined as 6.69 ± 1.21 %ID/g. Also, the tissue to tissue ratio at 1.5 h in “in vivo” (tumor/organ ratio Adrenals) was determined as 10.3 ± 3.8; in “in vivo” (tumor/organ ratio Blood), 7.2 ± 1.1; in the data set “in vivo” (setting [2]), 10.9 ± 0.8; in “in vivo” (tumor/organ ratio Kidneys) it was 0.1; in “in vivo” (setting [3]), 1.6 ± 0.7; in the data set “in vivo” (tumor/organ ratio Liver), 7.1 ± 0.7. Besides, the tissue to tissue ratio at 1.5 h in “in vivo” (tumor/organ ratio Lung) is 1.5 ± 0.3; in the data set “in vivo” (tumor/organ ratio Muscle), 10.9 ± 3; in “in vivo” (tumor/organ ratio Pancreas), 20.4 ± 3.1; in “in vivo” (setting [4]), 2.7 ± 0.5; in “in vivo” (tumor/organ ratio Spleen), 2.8 ± 0.4; in “in vivo” (setting [5]), 1.3 ± 0.3.

`CC(C)C[C@@H]1NC(=O)[C@H](CC(=O)O)NC(=O)CNC(=O)[C@H](CCCNC(=N)N)NC(=O)[C@H](Cc2ccc(O)cc2)NC(=O)[C@H](CCCCNC(=O)CCc2cn(CCCNC(=O)CCP(=O)(O)CN3CCN(CP(=O)(O)CCC(=O)NCCCn4cc(CCC(=O)NCCCC[C@H]5C(=O)N[C@@H](Cc6ccc(O)cc6)C(=O)N[C@@H](CCCNC(=N)N)C(=O)NCC(=O)N[C@@H](CC(=O)O)C(=O)N[C@@H](CC(C)C)C(=O)N[C@@H](C)C(=O)N[C@@H](Cc6ccc(O)cc6)C(=O)N6CCC[C@@H]6C(=O)N5C)nn4)CCN(CP(=O)(O)CCC(=O)NCCCn4cc(CCC(=O)NCCCC[C@H]5C(=O)N[C@@H](Cc6ccc(O)cc6)C(=O)N[C@@H](CCCNC(=N)N)C(=O)NCC(=O)N[C@@H](CC(=O)O)C(=O)N[C@@H](CC(C)C)C(=O)N[C@@H](C)C(=O)N[C@@H](Cc6ccc(O)cc6)C(=O)N6CCC[C@@H]6C(=O)N5C)nn4)CC3)nn2)N(C)C(=O)[C@H]2CCCN2C(=O)[C@H](Cc2ccc(O)cc2)NC(=O)[C@H](C)NC1=O` (68Ga complex, metal not drawn) [Y6]: the logD in data set [1] is -2.1 ± 0.1. The tissue uptake at 1.5 h in the data set “in vivo” (Adrenals uptake) worked out at 0.5 ± 0.11 %ID/g; in the data set “in vivo” (Blood uptake) it was 1.03 ± 0.21 %ID/g; in “in vivo” (Heart (myocard) uptake), 0.59 ± 0.11 %ID/g; in “in vivo” (Kidneys uptake), 95.7 ± 12.6 %ID/g; in the data set “in vivo” (Large intestine (empty) uptake) it was 4.36 ± 0.77 %ID/g; in “in vivo” (Liver uptake), 0.73 ± 0.11 %ID/g. The tissue uptake at 1.5 h in the data set “in vivo” (Lung uptake) was 4.47 ± 1.12 %ID/g; in “in vivo” (Muscle uptake), 0.68 ± 0.18 %ID/g; in the data set “in vivo” (Pancreas uptake), 0.27 ± 0.04 %ID/g; in “in vivo” (Small intestine (empty) uptake), 2.72 ± 1.15 %ID/g; in “in vivo” (Spleen uptake), 3.91 ± 0.91 %ID/g; in “in vivo” (Stomach (empty) uptake), 6.24 ± 1.24 %ID/g. The tissue uptake at 1.5 h in the data set “in vivo” (Tumor H2009 uptake) turned out to be 7.52 ± 1.21 %ID/g.
